Changes are numbered by the printed parent chain. Read-outs that look alike come from different tables or passages of the source.

Common to all, as to assay: ITC
Experiment [1] has as its target T1, linear tetra-SUMO2 (4×SUMO2-ΔN11) (UniProt P61956 12-95; P61956 12-95; P61956 12-95; P61956 12-95).
In experiment [2] the target is T2, linear di-SUMO2 (2×SUMO2-ΔN11) (UniProt P61956 12-95; P61956 12-95).
The next experiment deals with mono-SUMO1 (UniProt P63165 16-97).
Experiment [3] has as its target T3, mono-SUMO2 (UniProt P61956 12-93).
The target in experiment [4] is T3, mono-SUMO2. This is another data set of the same source.
The next experiment concerns the target linear tri-SUMO (UniProt P61956 12-95; P61956 12-95; P61956 12-95).
Experiment [5] has as its target T2, linear di-SUMO2 (2×SUMO2-ΔN11). This is another data set of the same source.
Experiment [6] addresses T1, linear tetra-SUMO2 (4×SUMO2-ΔN11). This is another data set of the same source.

T3 sequence (P61956 12-93): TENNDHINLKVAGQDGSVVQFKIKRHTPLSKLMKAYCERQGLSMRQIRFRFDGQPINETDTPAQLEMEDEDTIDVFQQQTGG
T2 sequence (P61956 other isoform, or with tags, fused parts or gaps mutant): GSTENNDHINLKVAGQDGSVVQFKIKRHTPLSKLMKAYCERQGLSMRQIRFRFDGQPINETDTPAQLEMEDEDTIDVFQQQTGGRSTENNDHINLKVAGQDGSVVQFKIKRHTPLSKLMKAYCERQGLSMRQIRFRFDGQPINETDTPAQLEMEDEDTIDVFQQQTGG
T1 sequence (P61956 other isoform, or with tags, fused parts or gaps mutant): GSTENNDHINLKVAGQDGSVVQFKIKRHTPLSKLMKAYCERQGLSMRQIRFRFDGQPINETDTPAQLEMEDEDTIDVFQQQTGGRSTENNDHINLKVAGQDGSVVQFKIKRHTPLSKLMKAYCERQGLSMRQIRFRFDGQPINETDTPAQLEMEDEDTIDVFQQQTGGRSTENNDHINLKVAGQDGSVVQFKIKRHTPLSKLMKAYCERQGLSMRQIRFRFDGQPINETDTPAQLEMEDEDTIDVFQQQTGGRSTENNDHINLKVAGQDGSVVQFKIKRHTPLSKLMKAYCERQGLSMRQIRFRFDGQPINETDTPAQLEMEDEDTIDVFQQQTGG
Sequence of linear tri-SUMO (P61956 other isoform, or with tags, fused parts or gaps): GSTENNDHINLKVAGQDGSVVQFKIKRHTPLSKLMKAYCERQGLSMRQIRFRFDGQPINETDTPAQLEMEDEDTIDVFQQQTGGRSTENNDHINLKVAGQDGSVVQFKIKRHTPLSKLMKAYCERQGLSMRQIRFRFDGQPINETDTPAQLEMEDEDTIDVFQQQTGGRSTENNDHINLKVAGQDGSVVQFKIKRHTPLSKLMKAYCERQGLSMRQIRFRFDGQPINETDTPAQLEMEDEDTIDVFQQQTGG
Sequence of mono-SUMO1 (P63165 16-97): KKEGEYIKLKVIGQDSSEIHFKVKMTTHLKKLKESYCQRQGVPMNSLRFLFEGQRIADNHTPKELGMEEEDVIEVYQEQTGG

B1: RNF4-SIM domain SIM1/2 double mutant (domain or fragment)
chain: MSTRKRRGGAINSRQAQKRTREATSTPEISLEAEPAAAAETAGDEIAAAACESLEPVVVDLTHNDSVVIVDERRRPRRNARRLPQDHADSCVVSSDDEELSRDRDVYVTTHTPRNARDEGATGLR
In experiment [1], B1 registered a Kd of 1.6 µM.

B2: RNF4-SIM domain SIM4 mutant (domain or fragment)
chain: MSTRKRRGGAINSRQAQKRTREATSTPEISLEAEPIELVETAGDEIVDLTCESLEPVVVDLTHNDSAAAADERRRPRRNARRLPQDHADSCVVSSDDEELSRDRDVYVTTHTPRNARDEGATGLR
In experiment [2], B2 registered a dissociation constant (Kd) of 16 µM.

B3: RNF4 1–125 (RNF4-SIM domain, wt) (domain or fragment)
chain: B2 chain with A67V, A68V, A69I, A70V
For B3, the Kd with mono-SUMO1 was 123 µM; in the experiment with mono-SUMO2 [3], 145 µM.

B4: RNF4-SIM domain SIM1/4 double mutant (domain or fragment)
chain: B2 chain with I36A, E37A, L38A, V39A
Regarding B4, the Kd in experiment [2] was found to be 14 µM.

B5: RNF4-SIM3/4 peptide (peptide)
chain: LEPVVVDLTHNDSVVIVDERR
modifications: exact peptide ends are only in Figure 2A; limits taken as SIM3 and SIM4 (VDLT, VVIV) plus short flanks; end groups unknown
As to B5, the Kd in experiment [2] came out at 72 µM; with mono-SUMO2 [4] it was 61 µM.

B6: RNF4-SIM2/3 peptide (peptide)
chain: GDEIVDLTCESLEPVVVDLTHND
modifications: exact peptide ends are only in Figure 2A; limits taken as SIM2 and SIM3 (VDLT, VDLT) plus short flanks; end groups unknown
B6 displayed a Kd in the experiment with mono-SUMO2 [4] of 106 µM.

B7: RNF4-SIM1/2 peptide (peptide)
chain: EAEPIELVETAGDEIVDLTCESL
modifications: exact peptide ends are only in Figure 2A; limits taken as SIM1 and SIM2 (IELV, VDLT) plus short flanks; end groups unknown
For B7, the equilibrium dissociation constant (Kd) in experiment [2] amounted to 44 µM; with mono-SUMO2 [4], 121 µM.

B8: full-length RNF4 (natural protein)
chain: MSTRKRRGGAINSRQAQKRTREATSTPEISLEAEPIELVETAGDEIVDLTCESLEPVVVDLTHNDSVVIVDERRRPRRNARRLPQDHADSCVVSSDDEELSRDRDVYVTTHTPRNARDEGATGLRPSGTVSCPICMDGYSEIVQNGRLIVSTECGHVFCSQCLRDSLKNANTCPTCRKKINHKRYHPIYI
On to B8, for which the dissociation constant (Kd) was found to be 1.5 µM in the experiment with linear tri-SUMO, 3.5 µM in experiment [5] and 0.8 µM in experiment [6].
